CN108640991A (JIANGSU QYUNS BIOMEDICINE CO LTD, dated 2018)

Target: T1, 人白介素17A (Human Interleukin-17A) (human, UniProt Q16552 24-155)
T1 construct: also called hIL-17A; IL-17A
Assay: SPR Biacore T200, 25°C, antibody captured on Protein A CM5 chip, antigen in solution, 1:1 model

T1 sequence (Q16552 24-155): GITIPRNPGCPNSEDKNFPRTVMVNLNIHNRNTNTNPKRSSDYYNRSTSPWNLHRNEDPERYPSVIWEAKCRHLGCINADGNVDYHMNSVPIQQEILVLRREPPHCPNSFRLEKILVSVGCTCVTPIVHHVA

B1: 抗人白介素17A单克隆抗体QX002N (antibody, V domains shown)
VH: EVQLQESGPGLVKPSETLSLTCTVSGIDLSLFYMSWIRQPPGKGLEWIGTIHEVASSYYASWAKGRVTISKDTSKNQFSLKLSSVTAADTAVYYCARETYSSRYPYPNIWGQGTLVTVSS
VL: DIQMTQSPSSVSASVGDRVTITCQASQNIGGSLAWYQQKPGKAPKLLIYGASSLASGVPSRFSGSGSGTDFTLTISSLQPEDFATYYCQSYNTISTYGLAFGGGTKVEIK
notes: Humanised from rabbit clone 37#; also called 37-5
  Kd: 0.00707 nM
  koff: 2.36e-05 s⁻¹
  kon: 3.35e+06 M⁻¹ s⁻¹

B2: Ixekizumab (antibody, V domains shown)
VH: QVQLVQSGAEVKKPGSSVKVSCKASGYSFTDYHIHWVRQAPGQGLEWMGVINPMYGTTDYNQRFKGRVTITADESTSTAYMELSSLRSEDTAVYYCARYDYFTGTGVYWGQGTLVTVSS
VL: DIVMTQTPLSLSVTPGQPASISCRSSRSLVHSRGNTYLHWYLQKPGQSPQLLIYKVSNRFIGVPDRFSGSGSGTDFTLKISRVEAEDVGVYYCSQSTHLPFTFGQGTKLEIKR
  Kd: 0.0154 nM
  koff: 2.58e-05 s⁻¹
  kon: 1.7e+06 M⁻¹ s⁻¹
